Laboratory results taken from patent US6800467B1, “Polypeptides having aminopeptidase activity and nucleic acids encoding same” (Novozymes Biotech, Inc., priority 1997, dated 2004).

Columns and labels:
Assay type in all cases: biochemical
[1] = Kinetic parameters (Lineweaver-Burke plot) at pH 7.5; conditions: for kcat: average molecular weight of 97 kDa used
Protocol: The kinetic parameters for various aminopeptidase II substrates was determined using the following protocol. Purified aminopeptidase II with an A280 of 0.581 was used. Each substrate was dissolved in DMSO to a concentration of 100 mg/ml and then diluted 50 fold in 50 mM sodium phosphate pH7.5 buffer to 2 mg/ml. The substrates included Leu-pNA, Glu-pNA (Bachem, Torrance, Calif.), and Ala-pNA. In a 96 well microtiter plate, 10 μl of purified aminopeptidase II was incubated with each substrate as follows except 50 µl of purified aminopeptidase II was incubated with Glu-pNA, and the absorbance at 405 nm was measured for 4 minutes:
1. 200 μl of 2 mg/ml substrate+0 μl of 50 mM sodium phosphate buffer pH 7.5
2. 100 μl of 2 mg/ml substrate+100 μl of 50 mM sodium phosphate buffer pH 7.5
3. 50 μl of 2 mg/ml substrate+150 μl of 50 mM sodium phosphate buffer pH 7.5
4. 25 μl of 2 mg/ml substrate+175 μl of 50 mM sodium phosphate buffer pH 7.5

[2] = pH optimum using Ala-pNA as substrate in universal buffer
Protocol: The purified aninopeptidase II described in Example 15 was used in the following characterizations.
The Ala-pNA substrate was prepared by dissolving 100 mg of Ala-pNA in 1 ml of DMSO and adding 20 μl of the Ala-pNA/DMSO solution to 980 μl of the universal buffer at the various pH values. The assay was initiated by adding a 15 μl aliquot of the aminopeptidase II in 50 mM sodium phosphate pH 7.5 buffer to 200 μl of 2 mg/ml Ala-pNA at the various pH values at ambient temperature. The change in absorbance at 405 nm was monitored for 5 minutes. Autohydrolysis of the substrate as a control was determined by adding 15 μl of 50 mM sodium phosphate pH 7.5 buffer to 200 μl of 2 mg/ml Ala-pNA at the various pH values.

[3] = test system: wheat gluten meal tablets; experiment: Degree of hydrolysis (DH) assay, gluten; conditions: 50° C., 18 hours
Protocol: The purified aminopeptidase II described in Example 11 was tested in degree of hydrolysis assays using soy, wheat gluten, and casein as substrates according to the following procedure.
The degree of hydrolysis (DH) assays were performed at 50° C. for 18 hours as a mini-hydrolysis on a 10 ml scale using soy bean meal tablets, wheat gluten meal tablets, and sodium-caseinate at a 2% concentration adjusted to pH 7, if necessary, with no pH adjustment during hydrolysis. The hydrolysates were inactivated at 85° C. for 3 minutes in a waterbath. The enzymes used were FLAVOURZYME™ and aminopeptidase II. The enzymes were dosed as follows. […] Upon hydrolysis, p-nitroanilide is liberated turning the solution yellow which is monitored 405 nm.
The degree of hydrolysis (DH), as defined as described by Adler-Nissen (1986, Enzymic Hydrolysis of Food Proteins, Elsevier Applied Science Publishers), was determined by reaction of the supernatant with OPA (ortho-phtaldialdehyde, Sigma Chemical Co., St. Louis, Mo.) according to the following procedure The hydrolysate was diluted 100-fold into distilled water. […] The solution was then shaken well and after 2 minutes exactly, the absorbance at 340 nm was measured and compared to the absorbance of a 0.95 mM L-serine (distilled water) solution after subtraction of the blank value (water reacted with OPA reagent). […]

B1: aminopeptidase II: Recombinant Aspergillus oryzae 1568 (ATCC 20386) aminopeptidase II, 496 amino acids (SEQ ID NO:2), produced in Aspergillus oryzae or Fusarium (protein)
chain: MRSLLWASLLSGVLAGRALVSPDEFPEDIQLEDLLEGSQQLEDFAYAYPERNRVFGGKAHDDTVNYLYEELKKTGYYDVYKQPQVHLWSNADQTLKVGDEEIEAKTMTYSPSVEVTADVAVVKNLGCSEADYPSDVEGKVALIKRGECPFGDKSVLAAKAKAAASIVYNNVAGSMAGTLGAAQSDKGPYSAIVGISLEDGQKLIKLAEAGSVSVDLWVDSKQENRTTYNVVAQTKGGDPNNVVALGGHTDSVEAGPGINDDGSGIISNLVIAKALTQYSVKNAVRFLFWTAEEFGLLGSNYYVSHLNATELNKIRLYLNFDMIASPNYALMIYDGDGSAFNQSGPAGSAQIEKLFEDYYDSIDLPHIPTQFDGRSDYEAFILNGIPSGGLFTGAEGIMSEENASRWGGQAGVAYDANYHAAGDNMTNLNHEAFLINSKATAFAVATYANDLSSIPKRNTTSSLHRRARTMRPFGKRAPKTHAHVSGSGCWHSQVEA
[1]; substrate Ala-pNA, enzyme of Example 15
  Km: 1490 µM
[1]; substrate Glu-pNA
  kcat: 0.137 s⁻¹
[1]; substrate Glu-pNA, enzyme of Example 15
  Km: 1170 µM
[1]; substrate Leu-pNA
  kcat: 3.848 s⁻¹
[1]; substrate Leu-pNA, enzyme of Example 15 (produced by Fusarium)
  Km: 5780 µM
[2]; Ala-pNA as substrate, ambient temperature, enzyme of Example 15 (produced by Fusarium)
  pH of optimal activity: 9.5-10
[2]; pH 4.42, Ala-pNA, ambient temperature
  Avg. Activity: 0 mOD/min
[2]; pH 4.42, Ala-pNA, relative to pH 9.68
  Relative Activity: 0
[2]; pH 4.91, Ala-pNA, ambient temperature
  Avg. Activity: 2 mOD/min
[2]; pH 4.91, Ala-pNA, relative to pH 9.68
  Relative Activity: 0.006
[2]; pH 5.41, Ala-pNA, ambient temperature
  Avg. Activity: 7.8 mOD/min
[2]; pH 5.41, Ala-pNA, relative to pH 9.68
  Relative Activity: 0.024
[2]; pH 5.89, Ala-pNA, ambient temperature
  Avg. Activity: 13.9 mOD/min
[2]; pH 5.89, Ala-pNA, relative to pH 9.68
  Relative Activity: 0.043
[2]; pH 6.40, Ala-pNA, ambient temperature
  Avg. Activity: 16.37 mOD/min
[2]; pH 6.40, Ala-pNA, relative to pH 9.68
  Relative Activity: 0.051
[2]; pH 6.90, Ala-pNA, ambient temperature
  Avg. Activity: 23.48 mOD/min
[2]; pH 6.90, Ala-pNA, relative to pH 9.68
  Relative Activity: 0.0727
[2]; pH 7.27, Ala-pNA, ambient temperature
  Avg. Activity: 41.24 mOD/min
[2]; pH 7.27, Ala-pNA, relative to pH 9.68
  Relative Activity: 0.128
[2]; pH 7.59, Ala-pNA, ambient temperature
  Avg. Activity: 69.15 mOD/min
[2]; pH 7.59, Ala-pNA, relative to pH 9.68
  Relative Activity: 0.214
[2]; pH 8.03, Ala-pNA, ambient temperature
  Avg. Activity: 145.6 mOD/min
[2]; pH 8.03, Ala-pNA, relative to pH 9.68
  Relative Activity: 0.45
[2]; pH 8.62, Ala-pNA, ambient temperature
  Avg. Activity: 245.99 mOD/min
[2]; pH 8.62, Ala-pNA, relative to pH 9.68
  Relative Activity: 0.761
[2]; pH 9.25, Ala-pNA, ambient temperature
  Avg. Activity: 306.97 mOD/min
[2]; pH 9.25, Ala-pNA, relative to pH 9.68
  Relative Activity: 0.95
[2]; pH 9.68, Ala-pNA (reference)
  Relative Activity: 1.0
[2]; pH 9.68, Ala-pNA, ambient temperature
  Avg. Activity: 323.15 mOD/min
[2]; pH 10.51, Ala-pNA, ambient temperature
  Avg. Activity: 270.8 mOD/min
[2]; pH 10.51, Ala-pNA, relative to pH 9.68
  Relative Activity: 0.838
[2]; pH 10.95, Ala-pNA, ambient temperature
  Avg. Activity: 197.86 mOD/min
[2]; pH 10.95, Ala-pNA, relative to pH 9.68
  Relative Activity: 0.612
[3]; 2 LAPUs aminopeptidase II added to 3 LAPUs FLAVOURZYME
  increase of absolute DH: 6%
[3]; 5 LAPUs aminopeptidase II added to 3 LAPUs FLAVOURZYME
  increase of absolute DH: 9%
